T1: FcγRIIa H (FcγRIIa type H, His at position 131), extracellular domain with C-terminal His tag (human, UniProt P12318 34-217)
T1 construct: extracellular domain; also called FcgRIIa H; 2aH
T1 sequence (looked up): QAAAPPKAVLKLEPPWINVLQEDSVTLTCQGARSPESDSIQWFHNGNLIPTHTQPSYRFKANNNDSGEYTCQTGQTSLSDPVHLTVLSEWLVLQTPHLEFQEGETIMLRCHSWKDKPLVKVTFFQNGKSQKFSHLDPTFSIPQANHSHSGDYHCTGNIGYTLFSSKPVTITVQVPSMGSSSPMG

B1: GpH7-B3 variant P271_01G/GpL16-k0 (antibody, human IgG1, kappa)
heavy: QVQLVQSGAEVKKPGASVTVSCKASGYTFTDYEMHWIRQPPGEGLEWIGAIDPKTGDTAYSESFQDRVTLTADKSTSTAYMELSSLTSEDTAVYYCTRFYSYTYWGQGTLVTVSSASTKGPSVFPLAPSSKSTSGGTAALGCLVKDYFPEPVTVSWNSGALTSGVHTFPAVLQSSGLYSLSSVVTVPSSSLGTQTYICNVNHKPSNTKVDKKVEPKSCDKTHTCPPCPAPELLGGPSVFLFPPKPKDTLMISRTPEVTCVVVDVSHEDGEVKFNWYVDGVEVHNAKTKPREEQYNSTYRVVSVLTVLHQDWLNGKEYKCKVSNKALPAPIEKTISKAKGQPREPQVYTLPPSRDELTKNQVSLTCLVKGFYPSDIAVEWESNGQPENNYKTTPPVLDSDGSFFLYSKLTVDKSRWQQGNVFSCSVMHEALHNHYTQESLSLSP
light: DIVMTQSPLSLPVTPGEPASISCQASESLVHSNRNTYLHWYLQKPGQSPQLLIYKVSNRFSGVPDRFSGSGSGTDFTLKISRVEAEDVGVYYCSQNTHVPPTFGQGTKVEIERTVAAPSVFIFPPSDEQLKSGTASVVCLLNNFYPREAKVQWKVDNALQSGNSQESVTEQDSKDSTYSLSSTLTLSKADYEKHKVYACEVTHQGLSSPVTKSFNRGEC
notes: both H chains mutated; also called Ho Ab
B2: GpH7-B3 variant Q295_05P/GpL16-k0 (antibody, human IgG1, kappa)
heavy: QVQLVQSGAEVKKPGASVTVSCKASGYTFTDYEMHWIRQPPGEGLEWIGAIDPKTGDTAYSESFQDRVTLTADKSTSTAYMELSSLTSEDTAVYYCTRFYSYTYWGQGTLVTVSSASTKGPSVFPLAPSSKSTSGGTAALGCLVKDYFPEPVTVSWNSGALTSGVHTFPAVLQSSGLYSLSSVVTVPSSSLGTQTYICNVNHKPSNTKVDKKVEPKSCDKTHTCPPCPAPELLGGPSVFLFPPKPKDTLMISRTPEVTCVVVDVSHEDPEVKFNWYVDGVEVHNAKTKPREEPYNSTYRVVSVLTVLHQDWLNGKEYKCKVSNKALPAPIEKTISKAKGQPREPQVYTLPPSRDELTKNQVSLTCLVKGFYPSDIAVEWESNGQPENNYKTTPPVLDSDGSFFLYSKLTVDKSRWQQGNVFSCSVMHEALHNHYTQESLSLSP
light: B1 light
notes: as for B1
B3: GpH7-B3 variant Q295_07I/GpL16-k0 (antibody, human IgG1, kappa)
heavy: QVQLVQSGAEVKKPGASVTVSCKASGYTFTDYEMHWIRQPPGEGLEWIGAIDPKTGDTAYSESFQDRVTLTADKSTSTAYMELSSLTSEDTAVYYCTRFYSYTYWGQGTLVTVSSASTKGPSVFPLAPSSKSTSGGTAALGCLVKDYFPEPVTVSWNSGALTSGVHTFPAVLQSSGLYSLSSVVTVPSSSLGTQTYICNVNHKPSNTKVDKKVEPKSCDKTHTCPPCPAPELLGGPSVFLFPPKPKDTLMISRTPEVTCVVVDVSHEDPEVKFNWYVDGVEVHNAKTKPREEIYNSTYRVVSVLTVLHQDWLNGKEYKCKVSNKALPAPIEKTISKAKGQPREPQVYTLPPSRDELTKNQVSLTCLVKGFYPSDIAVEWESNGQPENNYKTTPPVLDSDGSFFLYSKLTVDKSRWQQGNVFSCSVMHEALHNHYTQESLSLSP
light: B1 light
notes: as for B1
B4: GpH7-B3 variant S239_09D/GpL16-k0 (antibody, human IgG1, kappa)
heavy: not shown
light: B1 light
notes: as for B1
B5: GpH7-B3 variant S267_02A/GpL16-k0 (antibody, human IgG1, kappa)
heavy: not shown
light: B1 light
notes: as for B1
B6: GpH7-B3 variant S324_02A/GpL16-k0 (antibody, human IgG1, kappa)
heavy: not shown
light: B1 light
notes: as for B1
B7: GpH7-B3 variant S324_06M/GpL16-k0 (antibody, human IgG1, kappa)
heavy: not shown
light: B1 light
notes: as for B1
B8: GpH7-B3 variant S324_09D/GpL16-k0 (antibody, human IgG1, kappa)
heavy: not shown
light: B1 light
notes: as for B1
B9: GpH7-B3 variant S324_10E/GpL16-k0 (antibody, human IgG1, kappa)
heavy: not shown
light: B1 light
notes: as for B1
B10: GpH7-B3 variant S324_20W/GpL16-k0 (antibody, human IgG1, kappa)
heavy: not shown
light: B1 light
notes: as for B1
B11: GpH7-B3 variant S337_09D/GpL16-k0 (antibody, human IgG1, kappa)
heavy: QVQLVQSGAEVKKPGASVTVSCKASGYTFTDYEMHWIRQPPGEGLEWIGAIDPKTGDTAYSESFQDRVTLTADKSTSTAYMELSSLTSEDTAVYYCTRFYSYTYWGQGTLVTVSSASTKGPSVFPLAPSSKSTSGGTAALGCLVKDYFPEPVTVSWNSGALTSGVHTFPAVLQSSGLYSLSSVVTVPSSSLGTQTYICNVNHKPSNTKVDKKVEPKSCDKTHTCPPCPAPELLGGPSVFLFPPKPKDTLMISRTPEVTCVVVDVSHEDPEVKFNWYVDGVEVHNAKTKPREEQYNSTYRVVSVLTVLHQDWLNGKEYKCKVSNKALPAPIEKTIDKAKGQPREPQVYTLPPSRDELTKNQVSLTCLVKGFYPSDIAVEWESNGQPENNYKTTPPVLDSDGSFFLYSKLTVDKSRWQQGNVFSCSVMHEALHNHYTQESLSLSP
light: B1 light
notes: as for B1
B12: GpH7-B3 variant S337_10E/GpL16-k0 (antibody, human IgG1, kappa)
heavy: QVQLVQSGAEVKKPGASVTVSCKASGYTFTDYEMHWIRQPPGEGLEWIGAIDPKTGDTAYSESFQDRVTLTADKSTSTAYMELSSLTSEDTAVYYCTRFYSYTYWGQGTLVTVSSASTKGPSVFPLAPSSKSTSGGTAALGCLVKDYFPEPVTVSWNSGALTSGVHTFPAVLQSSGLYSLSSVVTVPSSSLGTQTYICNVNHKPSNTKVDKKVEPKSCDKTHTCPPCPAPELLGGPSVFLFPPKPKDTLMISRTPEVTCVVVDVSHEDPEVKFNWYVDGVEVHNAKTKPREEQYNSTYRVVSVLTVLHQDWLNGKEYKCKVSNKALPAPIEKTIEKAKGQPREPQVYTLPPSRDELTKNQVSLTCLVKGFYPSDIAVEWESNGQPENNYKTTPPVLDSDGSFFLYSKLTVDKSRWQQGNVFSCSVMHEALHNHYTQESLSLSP
light: B1 light
notes: as for B1
B13: GpH7-B3 variant S337_14T/GpL16-k0 (antibody, human IgG1, kappa)
heavy: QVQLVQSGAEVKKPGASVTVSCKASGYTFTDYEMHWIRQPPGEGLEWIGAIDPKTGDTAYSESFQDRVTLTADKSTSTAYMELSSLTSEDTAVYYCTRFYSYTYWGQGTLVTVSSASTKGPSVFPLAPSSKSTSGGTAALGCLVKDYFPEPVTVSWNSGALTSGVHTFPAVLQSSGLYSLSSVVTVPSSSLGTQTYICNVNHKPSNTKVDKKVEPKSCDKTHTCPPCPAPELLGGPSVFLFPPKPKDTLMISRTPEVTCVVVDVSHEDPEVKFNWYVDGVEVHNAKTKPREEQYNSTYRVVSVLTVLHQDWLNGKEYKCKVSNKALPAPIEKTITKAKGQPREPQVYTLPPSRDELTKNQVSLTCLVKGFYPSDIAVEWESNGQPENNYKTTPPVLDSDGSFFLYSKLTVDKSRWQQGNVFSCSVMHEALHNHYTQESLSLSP
light: B1 light
notes: as for B1
B14: GpH7-B3 variant S337_16H/GpL16-k0 (antibody, human IgG1, kappa)
heavy: not shown
light: B1 light
notes: as for B1
B15: GpH7-B3 variant T335_01G/GpL16-k0 (antibody, human IgG1, kappa)
heavy: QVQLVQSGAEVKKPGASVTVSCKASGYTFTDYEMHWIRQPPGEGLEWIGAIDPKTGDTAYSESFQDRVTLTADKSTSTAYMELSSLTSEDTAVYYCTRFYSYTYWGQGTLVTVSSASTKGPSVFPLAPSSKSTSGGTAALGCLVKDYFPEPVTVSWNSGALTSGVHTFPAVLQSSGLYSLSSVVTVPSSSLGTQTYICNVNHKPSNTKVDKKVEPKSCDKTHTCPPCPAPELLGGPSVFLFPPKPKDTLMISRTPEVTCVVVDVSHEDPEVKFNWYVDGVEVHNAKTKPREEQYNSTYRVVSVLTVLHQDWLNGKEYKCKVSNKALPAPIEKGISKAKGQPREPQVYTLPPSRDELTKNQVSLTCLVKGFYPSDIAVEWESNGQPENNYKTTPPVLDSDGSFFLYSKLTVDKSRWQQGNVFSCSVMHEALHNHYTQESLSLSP
light: B1 light
notes: as for B1
B16: GpH7-B3 variant T335_07I/GpL16-k0 (antibody, human IgG1, kappa)
heavy: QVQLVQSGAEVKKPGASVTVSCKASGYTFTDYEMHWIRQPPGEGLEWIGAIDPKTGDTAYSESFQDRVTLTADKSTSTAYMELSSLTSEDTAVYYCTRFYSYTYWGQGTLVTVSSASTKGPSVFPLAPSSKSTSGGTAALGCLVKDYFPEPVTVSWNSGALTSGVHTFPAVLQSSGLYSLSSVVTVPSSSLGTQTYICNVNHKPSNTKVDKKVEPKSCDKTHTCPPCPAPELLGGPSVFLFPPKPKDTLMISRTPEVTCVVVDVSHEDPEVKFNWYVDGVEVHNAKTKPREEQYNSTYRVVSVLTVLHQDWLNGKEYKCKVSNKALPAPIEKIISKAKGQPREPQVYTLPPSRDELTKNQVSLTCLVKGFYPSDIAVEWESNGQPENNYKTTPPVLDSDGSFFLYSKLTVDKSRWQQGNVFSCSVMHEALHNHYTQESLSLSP
light: B1 light
notes: as for B1
B17: GpH7-B3 variant T335_10E/GpL16-k0 (antibody, human IgG1, kappa)
heavy: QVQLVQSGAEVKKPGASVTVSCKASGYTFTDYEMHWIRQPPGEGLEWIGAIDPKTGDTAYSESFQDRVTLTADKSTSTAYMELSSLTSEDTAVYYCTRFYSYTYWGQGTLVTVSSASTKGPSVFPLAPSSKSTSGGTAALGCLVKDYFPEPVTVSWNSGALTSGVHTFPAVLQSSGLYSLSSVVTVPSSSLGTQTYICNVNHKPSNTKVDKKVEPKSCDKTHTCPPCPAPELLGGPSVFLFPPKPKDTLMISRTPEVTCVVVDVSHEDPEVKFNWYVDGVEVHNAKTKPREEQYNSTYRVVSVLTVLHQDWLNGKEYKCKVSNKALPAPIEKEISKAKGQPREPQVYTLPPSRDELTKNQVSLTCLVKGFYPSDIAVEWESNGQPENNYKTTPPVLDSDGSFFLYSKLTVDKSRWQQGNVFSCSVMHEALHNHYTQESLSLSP
light: B1 light
notes: as for B1
B18: GpH7-B3 variant T335_13S/GpL16-k0 (antibody, human IgG1, kappa)
heavy: not shown
light: B1 light
notes: as for B1
B19: GpH7-B3 variant T335_15Y/GpL16-k0 (antibody, human IgG1, kappa)
heavy: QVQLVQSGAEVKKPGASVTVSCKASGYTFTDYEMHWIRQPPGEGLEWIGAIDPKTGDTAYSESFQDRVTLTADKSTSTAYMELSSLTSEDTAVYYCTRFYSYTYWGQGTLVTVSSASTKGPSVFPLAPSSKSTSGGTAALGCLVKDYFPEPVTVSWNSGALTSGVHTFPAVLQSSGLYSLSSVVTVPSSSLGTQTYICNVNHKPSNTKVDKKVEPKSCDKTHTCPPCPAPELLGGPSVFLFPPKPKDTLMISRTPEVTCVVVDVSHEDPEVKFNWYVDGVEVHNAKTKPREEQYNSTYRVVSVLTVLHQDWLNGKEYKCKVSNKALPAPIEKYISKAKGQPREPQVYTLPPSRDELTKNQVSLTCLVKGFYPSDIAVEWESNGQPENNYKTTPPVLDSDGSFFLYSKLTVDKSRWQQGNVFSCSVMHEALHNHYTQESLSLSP
light: B1 light
notes: as for B1
B20: GpH7-B3 variant T335_16H/GpL16-k0 (antibody, human IgG1, kappa)
heavy: not shown
light: B1 light
notes: as for B1
B21: GpH7-B3 variant T335_19Q/GpL16-k0 (antibody, human IgG1, kappa)
heavy: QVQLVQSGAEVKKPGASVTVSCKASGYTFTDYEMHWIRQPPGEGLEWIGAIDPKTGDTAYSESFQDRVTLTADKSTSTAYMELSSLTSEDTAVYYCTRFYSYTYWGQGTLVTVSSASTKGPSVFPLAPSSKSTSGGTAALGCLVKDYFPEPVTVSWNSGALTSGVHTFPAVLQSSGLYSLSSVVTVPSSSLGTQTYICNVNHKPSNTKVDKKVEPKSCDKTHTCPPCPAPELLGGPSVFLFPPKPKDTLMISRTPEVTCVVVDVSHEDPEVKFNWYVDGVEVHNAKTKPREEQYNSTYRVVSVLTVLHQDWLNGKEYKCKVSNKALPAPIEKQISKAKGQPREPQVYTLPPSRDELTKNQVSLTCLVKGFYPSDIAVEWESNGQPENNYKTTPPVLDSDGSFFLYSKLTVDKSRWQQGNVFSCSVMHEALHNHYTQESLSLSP
light: B1 light
notes: as for B1
B22: GpH7-A5/GpH7-B3 variant I332_02A/GpL16-k0 (antibody, human IgG1, kappa)
heavy 1: not shown
heavy 2: not shown
light: B1 light
notes: one H chain mutated; also called He Ab
B23: GpH7-A5/GpH7-B3 variant A330_12R/GpL16-k0 (antibody, human IgG1, kappa)
heavy 1: not shown
heavy 2: not shown
light: B1 light
notes: as for B22

biological target: T1, FcγRIIa H (FcγRIIa type H, His at …); assay: SPR Biacore, relative binding, GpH7-B3/GpL16-k0 (HoCon Ab)=100
Method: (§1) Analysis of interaction between objective antibody and the FcγR was carried out using Biacore T100 (GE Healthcare). HBS-EP+ (GE Healthcare) was used as the running buffer, and the measurement temperature was set to 25° C. Chips produced by immobilizing the antigen peptide by the amine coupling method to a Series S Sencor Chip CM5 (GE Healthcare), or alternatively, chips produced by allowing preliminarily biotinylated antigen peptides to interact with and immobilize onto a Series S Sensor Chip SA (certified) (GE Healthcare) were used. Antibodies of interest were captured onto an antigen peptide-immobilized chip, and allowed to interact to each FcγR diluted with running buffer. To regenerate and repeatedly use the chip, the antibodies captured on the chip were washed off by reacting 10 mM glycine-HCl, pH 1.5.

Point of comparison: B18, Ho/Con_2aH 101 % of control. Against it:
- B1 — higher, 110 % of control
- B2 — higher, 106 % of control
- B3 — higher, 108 % of control
- B4 — higher, 112 % of control
- B5 — higher, 120 % of control
- B6 — higher, 102 % of control
- B7 — higher, 123 % of control
- B8 — higher, 113 % of control
- B9 — higher, 104 % of control
- B10 — higher, 108 % of control
- B11 — higher, 107 % of control
- B12 — the same, 101 % of control
- B13 — higher, 105 % of control
- B14 — higher, 102 % of control
- B15 — the same, 101 % of control
- B16 — higher, 105 % of control
- B17 — higher, 105 % of control
- B19 — higher, 102 % of control
- B20 — lower, 100 % of control
- B21 — higher, 103 % of control

biological target: T1, FcγRIIa H (FcγRIIa type H, His at …); assay: SPR Biacore, relative binding, GpH7-A5/GpH7-B3/GpL16-k0 (HeCon Ab)=100
Method: as §1

Point of comparison: B23, He/Con_2aH 108 % of control. Against it:
- B22 — higher, 111 % of control
